Experimental data from PMC11514473, “The transition state for coupled folding and binding of a disordered DNA binding domain resembles the unbound state” (Nucleic Acids Research, 2024).
Values belong to the binder of their own block, whether it stands above or below them. Where no end group is shown, it is not given here.

Tests used:
[1] = biological target: T1, CREB 285bZIP (bZIP domain of human cAMP-response element binding protein, residues 285-339, cysteines … (human)); experiment: stopped-flow urea refolding kinetics (intrinsic tyrosine fluorescence); 285bZIP in 8 M urea mixed 1:10 with buffer of lower urea concentrations; 2.2, 4.5 and 9.1 uM CREB; excitation 278 nm, 305 nm cut-off filter; 25.0 C; traces fit to a 2-state reversible 2P to P2 model; L and k1 extrapolated by straight line fits to the absence of urea; dimer to monomers; conditions: both partners purified
T1 chain: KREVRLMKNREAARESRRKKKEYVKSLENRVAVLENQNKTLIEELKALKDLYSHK

[2] = biological target: T2, CREB 285bZIP wild type (pseudo-WT, Cys to Ser) (human, UniProt P16220-1 285-339, C300S;C310S;C337S); experiment: NMR; two-fold excess DNA over dimer; basic region folds to helix; 10 mM Mg2+; 10 mM MES pH 6.5, 150 mM NaCl, 10 mM MgCl2, 0.05% Tween-20, 25 C; NMR: 10 mM Tris-d11, 150 mM NaCl, 10 mM MgCl2, 1 mM NaN3, 5% D2O (NOE at 25 C); conditions: protein: recombinant; tags: extra N-terminal Gly after TEV cleavage; His6-GB1 removed; chain copies: 2; label: none; blunt, self-complementary, 2 copies
T2 sequence: T1 chain

Kd [1]: 11 ± 2 nM | kon [1]: 7.1e+06 ± 500000 M⁻¹ s⁻¹
B1: CREB 285bZIP (bZIP domain of human cAMP-response element binding protein, residues 285-339, cysteines replaced with serines) (domain or fragment)
chain: T1 chain
modifications: also: homodimer

B2: symmetric CRE DNA (NMR) (dsDNA)
DNA 1: AGATGACGTCATCT
DNA 2: AGATGACGTCATCT
binding result [2]: binds
